To fix the notation:
B1: OR4K15 (parent)
chain: GUUAACGGUCAUAGGCCAUGGAAACUAGGAGCACCAUUUCGCUGCCAGUGAAGAAAUGAACAAAGAAAAUCUGGGCCAGGCAGGCAUCAAAAGAAAUAGUCUUGCGCUCAACCAGAAAGUCUGUAAUCAUUUUAAGGGUA

Variants of B1 are the subject of this series. Briefly: self-cleavage, relative activity (ratio to wild type); higher = more cleavage; in vitro, sequencing; the parent is a self-cleaving ribozyme.
For G7A A64G, the self-cleavage turned out to be 1.18. With U9A A111U, the self-cleavage was 0.19.

A5U U72A: the self-cleavage stood at 0.62. Take G7A A116U: the self-cleavage was 0.33.

For the variant G7U A92G, the self-cleavage was determined as 1.66. For U9A U130C the value was 1.33. Consider U9C A22G, for which the self-cleavage came out at 1.21. On to C6U A110G, for which the self-cleavage is 0.19. G7U A116U: the self-cleavage was found to be 0.38. For A5U A33G the value was 0.69; for A5U A33C, 1.62. For U9C A129U the value was 0.98; for U9C A129C, 0.68; for U9C A129G, 1.37.

A5G U131C: the self-cleavage is 0.56. As to G7U A47G, the self-cleavage was found to be 1.17. For G7U A114G the value was 0.16; for C6U U57A, 0.77; for C6A U122C, 0.29. For A5U U12A, the self-cleavage stood at 0.69. For G7A A92U the value was 1.72; for G7A A92G, 1.8. For A5G U49C the value was 0.97; for G7A A86G, 0.94; for G8A U49C, 2.37. For G7U A135U the value was 2.23; for C6A A110G, 0.08; for U9A A52C, 2.25.

As to C6A A95G, the self-cleavage is 0.79. In the case of A5G U103C, the self-cleavage amounted to 0.27. As to C6U G80A, the self-cleavage came out at 0.22. Take U9A A110G: the self-cleavage was 0.22.

In the case of G7U U19C, the self-cleavage was 1.79.

With A5G U97C, the self-cleavage was 1.25.

Regarding U9A A90G, the self-cleavage amounted to 1.23.

C6U U43C: the self-cleavage was found to be 1.58. For A5U U130C the value was 0.85; for C6U U19G, 0.77. Turning to C6U C77U, the self-cleavage came to 0.34. As to C6U A47U, the self-cleavage turned out to be 0.51.

As for U9A A89U, the self-cleavage was 0.66. For G7A G137U the value was 2.13. Regarding G7A A22G, the self-cleavage was determined as 1.42.

As for G7A A22U, the self-cleavage was determined as 1.51. Turning to G7A A89G, the self-cleavage is 0.61. For A5U A140G the value was 1.09; for U9A U43A, 0.83; for U9A A11G, 0.92.

Take G7A A110G: the self-cleavage stood at 0.11.

Turning to G7A A110C, the self-cleavage turned out to be 0.23. For U9C A63U, the self-cleavage was 1.83. For U9C A91U the value was 1.49; for G8A A55G, 2.14; for U9A G80U, 0.2. Turning to A5U A30U, the self-cleavage is 1.11. G7A A82U: the self-cleavage turned out to be 0.14. Take G7A A90G: the self-cleavage stood at 1.26. For the variant C6G U132C, the self-cleavage was 0.79. With G7A A78G, the self-cleavage turned out to be 0.19. For G7U C77U the value was 1.9; for A5U A66G, 1.27. For G7A G74U the value was 0.2; for C6U G44A, 1.34. With A5U A78G, the self-cleavage is 0.44.

Regarding C6U A13G, the self-cleavage worked out at 1.29. For A5G U26C the value was 0.6. For the variant C6U A134G, the self-cleavage was found to be 1.38. For A5U U102C the value was 1.69; for G7A U19C, 1.14; for A5U A95U, 1.76.

For C6U A27G, the self-cleavage amounted to 2.16. Consider G7A A27G, for which the self-cleavage is 1.3.

Turning to G8A A96G, the self-cleavage amounted to 1.97.

Take U9C A92C: the self-cleavage came out at 2.26. U9C A92G: the self-cleavage was 0.82. In the case of G8C U43C, the self-cleavage came out at 2.42.

With A5U A96G, the self-cleavage was 1.12. For G7U A111G the value was 0. For the variant G7U U70A, the self-cleavage came to 1.27. On to G7A A18C, for which the self-cleavage was 1.98. With G7A A18G, the self-cleavage is 0.64. Consider U9A A33G, for which the self-cleavage amounted to 0.9. In the case of U9C A13U, the self-cleavage was determined as 1.22. For C6U A52G the value was 0.59; for G8A U70C, 1.22; for G8A C32U, 2.12.

G7U U12C: the self-cleavage stood at 0.79. In the case of G8A C77U, the self-cleavage stood at 1.72. As to A5U A23U, the self-cleavage was 1.56.

Turning to U9C A82U, the self-cleavage was 0.35.

On to U9C A82G, for which the self-cleavage stood at 0.58. As for A5U A126U, the self-cleavage is 0. For U9A U122C the value was 0.88.

In the case of U9A U122A, the self-cleavage is 1.22. For G7U A95G the value was 1.43; for G7U U49C, 1.71; for G8A A60G, 1.53. For the variant U9C A60U, the self-cleavage was found to be 1.9. Take U9C A60G: the self-cleavage is 1.41. As to U9A U97A, the self-cleavage is 1.03. As for U9A A98G, the self-cleavage stood at 0.34. Turning to A5U A86G, the self-cleavage was found to be 0.92.

In the case of C6U A89G, the self-cleavage was 1.13. Take U9C A111G: the self-cleavage is 0.02. For U9C A111U the value was 0.09; for G7A A36U, 1.54.

Take U9C A54G: the self-cleavage is 1.53.

On to A5U G138A, for which the self-cleavage turned out to be 1.71. For the variant U9A A69G, the self-cleavage came out at 1.27. For the variant C6U U38C, the self-cleavage turned out to be 1.48. For G7U A67G the value was 1.28; for C6U U26A, 0.53; for G7U A90G, 2.21. Consider G7U A117G, for which the self-cleavage was found to be 1.7.

In the case of A5U U127C, the self-cleavage was 1.03.

In the case of G8A U19A, the self-cleavage is 1.92. For G8A U9C the value was 1.16. For G7A A52G the value was 1.25.

On to A5G U43A, for which the self-cleavage was 1.49.

Regarding A5G U43C, the self-cleavage was found to be 0.59.

For the variant G8C U122C, the self-cleavage turned out to be 1.12. For C6A A66G the value was 1.23; for U9C A47C, 1.02. For U9C A47G the value was 1.08; for U9C A47U, 1.1.

With G7A U132C, the self-cleavage came out at 1.2. For C6G U100C the value was 0.97.

Regarding G7C U72A, the self-cleavage is 0.38. For G8A C35U the value was 0.52; for A5U A55U, 1.15.

For the variant A5U U100G, the self-cleavage was 1.03. For U9A C42A the value was 0.53; for C6A A68G, 1.14; for G8A U120C, 1.57. For G7A A140U the value was 1.62; for G7A U122C, 0.84; for U9C A68G, 1.51.

Take G7U A56G: the self-cleavage came to 1.29. For C6U U102A the value was 1.22; for U9C A90U, 2.21. For A5U U103C the value was 0.83. As to A5U U108C, the self-cleavage was 0.04. For A5U G21A the value was 1.25. For U9C A52U the value was 1.23.

Regarding U9C A52G, the self-cleavage amounted to 1.63.

On to U9A C77A, for which the self-cleavage came to 0.08. For G7U U39C the value was 0.54. Regarding C6U A11U, the self-cleavage worked out at 1.34.

Turning to C6A U57C, the self-cleavage turned out to be 0.36. For A5G U72C the value was 0.41; for A5G U72A, 0.43; for C6U A125C, 1. Regarding G7A G79A, the self-cleavage was determined as 0.11. For U9C A36G the value was 0.96; for U9A G15C, 0.57. As for G7A U72C, the self-cleavage came to 0.27. For U9C A78U the value was 0.56; for U9C A78C, 0.38; for A5U A91U, 1.64. For A5U A91G, the self-cleavage was 0.86. Take U9C A110G: the self-cleavage came to 0.15.

Take U9A A96G: the self-cleavage was 1.16. Turning to C6A A117G, the self-cleavage was 0.6. For G8C A64G the value was 2.95; for U9C A23C, 1.27; for U9C A23U, 1.07. For G7A U37C the value was 2.58.
